{
  "source": "patent US20130252251A1",
  "about": "(CENTRE NATIONAL DE LA RECHERCHE SCIENTIFIQUE, published 2013)",
  "molecules": {"B1": {"name": "Human T Leukaemia Virus-2 receptor-binding domain (HTLV-2 RBD) (ligand)", "chain": "QQSRCTLTVGISSYHSSPCSPTQPVCTWNLDLNSLTTDQRLHPPCPNLITYSGFHKTYSLYLFPHWIKKPNRQGLGYYSPSYNDPCSLQCPYLGCQSWTCPYTGPVSSPSWKFHSDVNFTQEVSQVSLRLHFSKCGSSMTLLVDAPGYDPLWFITSEPTQPPPTSPPLVHDSDLEHVLTPSTSWTTKILKFIQLTLQSTNYSCMVC", "notes": "not shown: tag: EGFP, mouse-IgG Fc or rabbit-IgG Fc"}, "B2": {"name": "Koala endogeneous Retrovirus receptor-binding domain (KoRV RBD) (ligand)", "chain": "NQQHNNPHQPMTLTWQVLSQTGSVVWEKKAVEPPWTWWPSLEPDVCALVAGLESWDIPELTASASQQARPPDSNYEHAYNQITWGTLGCSYPRARTRIARSQFYVCPRDGRSLSEARRCGGLESLYCKEWGCETAGTAYWQPRSSWDLITVGQGHPTGTCERTGWCNPLKIEFTEPGKRFRNWLQGRTWGLRFYVTGHPGVQLTIRLVITSPPPVVVGPDPVLAEQGPPRKIPFLPRVPVPTLSPPASPIPTVQASPPAPSTPSPTTGDRLFGLVQGAFLALNATNPEATESCWLC", "notes": "as for B1"}, "B3": {"name": "Feline endogenous retrovirus receptor-binding domain (RD114 RBD) (ligand)", "chain": "GFDDPRKAIALVQKQHGKPCECSGGQVSEAPPNSIQQVTCPGKTAYLMTNQKWKCRVTPKISPSGGELQNCPCNTFQDSMHSSCYTEYRQCRRINKTYYTATLLKIRSGSLNEVQILQNPNQLLQSPCRGSINQPVCWSATAPIHISDGGGPLDTKRVWTVQKRLEQIHKAMTPELQYHPLALPKVRDDLSLDARTFDILNTTFRLLQMSNFSLAQDCWLC", "notes": "as for B1"}, "B4": {"name": "Amphotropic Murine Leukemia Retrovirus receptor-binding domain (AMLV RBD) (ligand)", "chain": "AESPHQVFNVTWRVTNLMTGRTANATSLLGTVQDAFPKLYFDLCDLVGEEWDPSDQEPYVGYGCKYPAGRQRTRTFDFYVCPGHTVKSGCGGPGEGYCGKWGCETTGQAYWKPTSSWDLISLKRGNTPWDTGCSKVACGPCYDLSKVSNSFQGATRGGRCNPLVLEFTDAGKKANWDGPKSWGLRLYRTGTDPITMFSLTRQVLNVGPRVPIGPNPVLPDQRLPSSPIEIVPAPQPPSPLNTSYPPSTTSTPSTSPTSPSVPQPPPGTGDRLLALVKGAYQALNLTNPDKTQECWLC", "notes": "as for B1"}},
  "key": {"[1]": {"target": "membrane receptor interacting with BLV", "assay": "flow cytometry, tagged RBD on blood neutrophils of one CF patient"}, "[2]": {"target": "membrane receptor interacting with BLV", "assay": "flow cytometry, tagged RBD on sputum neutrophils of one CF patient"}, "[3]": {"target": "membrane receptor interacting with BLV", "assay": "flow cytometry, tagged RBD on blood neutrophils of healthy control donors (N=8)"}, "[4]": {"target": "membrane receptor interacting with BLV", "assay": "flow cytometry, tagged RBD on blood neutrophils of rheumatoid arthritis patients (N=9)"}, "[5]": {"target": "PAR (PeRV A Receptor) receptors: human Riboflavin Transporter 1 (hRFT1 or PAR2) and hRFT3 (or PAR1)", "assay": "flow cytometry, tagged RBD on blood neutrophils of one CF patient"}, "[6]": {"target": "PAR (PeRV A Receptor) receptors: human Riboflavin Transporter 1 (hRFT1 or PAR2) and hRFT3 (or PAR1)", "assay": "flow cytometry, tagged RBD on sputum neutrophils of one CF patient"}, "[7]": {"target": "PAR (PeRV A Receptor) receptors: human Riboflavin Transporter 1 (hRFT1 or PAR2) and hRFT3 (or PAR1)", "assay": "flow cytometry, tagged RBD on blood neutrophils of healthy control donors (N=8)"}, "[8]": {"target": "PAR (PeRV A Receptor) receptors: human Riboflavin Transporter 1 (hRFT1 or PAR2) and hRFT3 (or PAR1)", "assay": "flow cytometry, tagged RBD on blood neutrophils of rheumatoid arthritis patients (N=9)"}, "GLUT1 membrane receptor [9]": {"target": "T1, GLUT1 membrane receptor (human, UniProt P11166 1-492)", "T1 construct": "whole, on cells; Endogenous receptor on primary blood or sputum neutrophils", "T1 sequence": "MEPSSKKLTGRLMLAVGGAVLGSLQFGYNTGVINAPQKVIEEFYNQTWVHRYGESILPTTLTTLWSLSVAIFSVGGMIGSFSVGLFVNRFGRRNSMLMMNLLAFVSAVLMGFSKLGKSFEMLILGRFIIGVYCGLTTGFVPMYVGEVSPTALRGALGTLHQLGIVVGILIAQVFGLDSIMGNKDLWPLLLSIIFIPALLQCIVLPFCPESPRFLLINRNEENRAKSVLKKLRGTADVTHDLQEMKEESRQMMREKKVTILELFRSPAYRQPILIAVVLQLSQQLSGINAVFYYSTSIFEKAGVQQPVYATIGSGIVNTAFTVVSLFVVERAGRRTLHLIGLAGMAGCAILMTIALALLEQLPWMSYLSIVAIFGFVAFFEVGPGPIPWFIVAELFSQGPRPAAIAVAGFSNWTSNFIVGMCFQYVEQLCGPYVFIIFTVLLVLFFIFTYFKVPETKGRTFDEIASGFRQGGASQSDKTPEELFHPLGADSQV", "assay": "flow cytometry, tagged RBD on blood neutrophils of healthy control donors (N=8)"}, "GLUT1 membrane receptor [10]": {"target": "T1, GLUT1 membrane receptor", "assay": "flow cytometry, tagged RBD on blood neutrophils of rheumatoid arthritis patients (N=9)"}, "PiT1 membrane receptor [11]": {"target": "T2, PiT1 membrane receptor (human, UniProt Q8WUM9 1-679)", "T2 construct": "whole, on cells; Endogenous receptor on primary blood or sputum neutrophils", "T2 sequence": "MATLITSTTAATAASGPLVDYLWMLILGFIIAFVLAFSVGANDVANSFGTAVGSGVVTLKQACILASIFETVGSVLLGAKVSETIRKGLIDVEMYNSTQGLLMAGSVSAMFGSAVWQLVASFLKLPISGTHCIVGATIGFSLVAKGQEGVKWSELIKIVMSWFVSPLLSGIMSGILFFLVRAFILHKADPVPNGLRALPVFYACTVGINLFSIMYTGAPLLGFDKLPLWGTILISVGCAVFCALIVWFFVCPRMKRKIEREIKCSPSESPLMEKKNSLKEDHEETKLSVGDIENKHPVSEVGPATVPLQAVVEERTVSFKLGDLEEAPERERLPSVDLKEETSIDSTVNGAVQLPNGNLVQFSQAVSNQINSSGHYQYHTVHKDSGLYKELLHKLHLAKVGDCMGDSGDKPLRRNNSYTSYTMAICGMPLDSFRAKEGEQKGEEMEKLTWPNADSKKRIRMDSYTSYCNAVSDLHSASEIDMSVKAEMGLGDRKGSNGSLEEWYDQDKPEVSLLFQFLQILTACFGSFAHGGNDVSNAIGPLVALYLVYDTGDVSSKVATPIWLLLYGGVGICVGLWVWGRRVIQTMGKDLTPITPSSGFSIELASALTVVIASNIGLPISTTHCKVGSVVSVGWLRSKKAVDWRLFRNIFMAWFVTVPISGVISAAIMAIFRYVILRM", "assay": "flow cytometry, tagged RBD on blood neutrophils of healthy control donors (N=8)"}, "PiT1 membrane receptor [12]": {"target": "T2, PiT1 membrane receptor", "assay": "flow cytometry, tagged RBD on blood neutrophils of rheumatoid arthritis patients (N=9)"}, "ASCT2 membrane receptor [13]": {"target": "T3, ASCT2 membrane receptor (human, UniProt Q15758 1-541)", "T3 construct": "whole, on cells; Endogenous receptor on primary blood or sputum neutrophils; also called ASTC2", "T3 sequence": "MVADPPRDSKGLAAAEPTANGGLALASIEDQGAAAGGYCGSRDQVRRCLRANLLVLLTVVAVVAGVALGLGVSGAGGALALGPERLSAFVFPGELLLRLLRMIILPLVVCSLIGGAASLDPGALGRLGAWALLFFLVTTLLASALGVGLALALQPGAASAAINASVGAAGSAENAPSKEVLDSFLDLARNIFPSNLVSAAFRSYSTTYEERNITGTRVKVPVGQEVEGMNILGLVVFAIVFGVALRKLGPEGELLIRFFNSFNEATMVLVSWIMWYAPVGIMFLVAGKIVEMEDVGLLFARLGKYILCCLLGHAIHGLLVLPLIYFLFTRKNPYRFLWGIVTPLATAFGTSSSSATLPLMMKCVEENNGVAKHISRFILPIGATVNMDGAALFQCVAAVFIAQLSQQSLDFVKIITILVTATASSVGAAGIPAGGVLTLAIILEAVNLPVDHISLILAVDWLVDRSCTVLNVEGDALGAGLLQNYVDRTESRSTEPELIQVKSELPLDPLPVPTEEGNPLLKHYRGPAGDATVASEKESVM", "assay": "flow cytometry, tagged RBD on blood neutrophils of healthy control donors (N=8)"}, "ASCT2 membrane receptor [14]": {"target": "T3, ASCT2 membrane receptor", "assay": "flow cytometry, tagged RBD on blood neutrophils of rheumatoid arthritis patients (N=9)"}, "PiT2 membrane receptor [15]": {"target": "T4, PiT2 membrane receptor (human, UniProt Q08357 1-652)", "T4 construct": "whole, on cells; Endogenous receptor on primary blood or sputum neutrophils; also called FiT2", "T4 sequence": "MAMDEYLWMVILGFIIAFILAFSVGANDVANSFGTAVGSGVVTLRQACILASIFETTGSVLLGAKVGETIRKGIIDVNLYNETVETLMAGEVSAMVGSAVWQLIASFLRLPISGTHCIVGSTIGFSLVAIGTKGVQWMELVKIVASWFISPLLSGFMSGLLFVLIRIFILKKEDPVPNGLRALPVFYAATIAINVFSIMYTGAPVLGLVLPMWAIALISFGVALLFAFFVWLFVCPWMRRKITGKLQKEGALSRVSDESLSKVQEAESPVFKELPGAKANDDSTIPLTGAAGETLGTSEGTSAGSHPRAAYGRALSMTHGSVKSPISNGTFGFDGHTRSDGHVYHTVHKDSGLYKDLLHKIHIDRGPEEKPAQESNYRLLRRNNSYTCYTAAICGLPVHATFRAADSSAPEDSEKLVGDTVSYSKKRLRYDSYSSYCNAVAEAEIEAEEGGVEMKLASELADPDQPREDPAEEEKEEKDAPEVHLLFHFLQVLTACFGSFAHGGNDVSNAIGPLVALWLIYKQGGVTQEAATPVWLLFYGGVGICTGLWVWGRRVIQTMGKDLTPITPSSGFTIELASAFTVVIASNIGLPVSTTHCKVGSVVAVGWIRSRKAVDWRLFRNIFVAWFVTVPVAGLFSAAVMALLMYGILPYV", "assay": "flow cytometry, tagged RBD on blood neutrophils of healthy control donors (N=8)"}, "PiT2 membrane receptor [16]": {"target": "T4, PiT2 membrane receptor", "assay": "flow cytometry, tagged RBD on blood neutrophils of rheumatoid arthritis patients (N=9)"}},
  "data": [
    {"molecule": "Bovine Leukaemia Virus receptor-binding domain (BLV RBD) (from UniProt P25507 34-215) (ligand)", "values": [
      {"measurement": "deltaGeomean of fluorescence", "setting": "[1]", "result": 0},
      {"measurement": "deltaGeomean of fluorescence", "setting": "[2]", "result": 140},
      {"measurement": "deltaMedian of fluorescence (median)", "setting": "[3]", "result": 3550},
      {"measurement": "deltaMedian of fluorescence (median)", "setting": "[4]", "result": 2750}
    ]},
    {"molecule": "Porcine Endogeneous Retrovirus-A receptor-binding domain (PERVA RBD) (ligand)", "values": [
      {"measurement": "deltaGeomean of fluorescence", "setting": "[5]", "result": 4160},
      {"measurement": "deltaGeomean of fluorescence", "setting": "[6]", "result": 284},
      {"measurement": "deltaMedian of fluorescence (median)", "setting": "[7]", "result": 3740},
      {"measurement": "deltaMedian of fluorescence (median)", "setting": "[8]", "result": 2320}
    ]},
    {"molecule": "B1", "values": [
      {"measurement": "deltaMedian of fluorescence (median)", "setting": "GLUT1 membrane receptor [9]", "result": 4670},
      {"measurement": "deltaMedian of fluorescence (median)", "setting": "GLUT1 membrane receptor [10]", "result": 3180}
    ]},
    {"molecule": "B2", "values": [
      {"measurement": "deltaMedian of fluorescence (median)", "setting": "PiT1 membrane receptor [11]", "result": 2640},
      {"measurement": "deltaMedian of fluorescence (median)", "setting": "PiT1 membrane receptor [12]", "result": 1880}
    ]},
    {"molecule": "B3", "values": [
      {"measurement": "deltaMedian of fluorescence (median)", "setting": "ASCT2 membrane receptor [13]", "result": 1630},
      {"measurement": "deltaMedian of fluorescence (median)", "setting": "ASCT2 membrane receptor [14]", "result": 1650}
    ]},
    {"molecule": "B4", "values": [
      {"measurement": "deltaMedian of fluorescence (median)", "setting": "PiT2 membrane receptor [15]", "result": 3930},
      {"measurement": "deltaMedian of fluorescence (median)", "setting": "PiT2 membrane receptor [16]", "result": 2860}
    ]}
  ]
}
